Measurements published in the supplement of paper PMC7877785.
± gives the uncertainty stated by the source.

Experiment: self-splicing fitness, log relative to wild type (ln ratio); higher = more splicing; Tetrahymena group I intron in knt gene, E. coli kanamycin selection, DiMSum; sequences stand for … in CUCUCU…GGAGGGAAAAGUUAUCAGGCAUGCACCUGGUAGCUAGUCUUUAAACCAAUAGAUUGCAUCGGUUUAAAAGGCAAGACCGUCAAAUUGCGGGAAAGGGGUCAACAGCCGUUCAGUACCAAGUCUCAGGGGAAACUUUGAGAUGGCCUUGCAAAGGGUAUGGUAAUAAGCUGACGGACAUGGUCCUAACCACGCAGCCAAGUCCUAAGUCAACAGAUCUUCUGUUGAUAUGGAUGCAGUUCACAGACUAAAUGUCGGUCGGGGAAGAUGUAUUCUUCUCAUAAGAUAUAGUCGGACCUCUCCUUAAUGGGAGCUAGCGGAUGAAGUGAUGCAACACUGGAGCCGCUGGGAACUAAUUUGUAUGCGAAAGUAUAUUGAUUAGUUUUGGAGUACUCGUGGUCG
In short: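 DiMSum derived fitness as the error-weighted combination of fold changes across replicates, kanamycin versus no kanamycin, normalised to wild type. E. coli BL21(DE3) held the library, which randomised all eight P1ex-region intron nucleotides within the knt kanamycin-resistance gene on pET-22b(+). Six replicate transformations grew overnight at 37°C or 30°C on LB agar with or without 25 μg/mL kanamycin, also containing 100 μg/mL carbenicillin, 50 μM IPTG and 0.2% rhamnose, and pooled colonies were amplicon-sequenced on an Illumina HiSeq 2500.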

Sequence	self-splicing fitness (ln) (30 °C)	self-splicing fitness (ln) (37 °C)
GUGUAGCAAUAUUACGUAUA	-2.85 ± 0.49	-0.725 ± 0.15
GUGUAGCAAUAUUACGUUUC	-2.63 ± 0.13	-1.92 ± 0.13
GUUAAGCAAUAUUACGACUC	0.708 ± 0.15	0.214 ± 0.17
GUUAAGCAAUAUUACGAGAU	-2.48 ± 0.3	-1.81 ± 0.35
GUUAAGCAAUAUUACGAUUG	-3.09 ± 0.34	-1.63 ± 0.34
GUUAAGCAAUAUUACGCAAA	-2.21 ± 0.27	-2.21 ± 0.22
GUUAAGCAAUAUUACGCAUC	-2.3 ± 0.1	-0.951 ± 0.095
GUUAAGCAAUAUUACGCCUG	-0.512 ± 0.11	-0.224 ± 0.12
GUUAAGCAAUAUUACGCGAA	-2.09 ± 0.21	0.0507 ± 0.2
GUUAAGCAAUAUUACGCUAU		-0.862 ± 0.32
GUUAAGCAAUAUUACGCUCU	-1.24 ± 0.1	-1.12 ± 0.11
GUUAAGCAAUAUUACGGAUA	-2.09 ± 0.12	-1.61 ± 0.16
GUUAAGCAAUAUUACGGCUU	-1.22 ± 0.11	-0.546 ± 0.14
GUUAAGCAAUAUUACGGGUC	-1.33 ± 0.34	-1.77 ± 0.41
GUUAAGCAAUAUUACGGUGC	-2.42 ± 0.1	-1.23 ± 0.12
GUUAAGCAAUAUUACGUAAC	-3.15 ± 0.44	
GUUAAGCAAUAUUACGUAAU	-2.09 ± 0.079	-1.49 ± 0.089
GUUAAGCAAUAUUACGUACG	-1.83 ± 0.14	-0.662 ± 0.14
GUUAAGCAAUAUUACGUAUA	-1.79 ± 0.14	-1.54 ± 0.15
GUUAAGCAAUAUUACGUCCA	-1.21 ± 0.088	0.057 ± 0.097
GUUAAGCAAUAUUACGUCUA	-0.524 ± 0.1	-0.261 ± 0.099
GUUAAGCAAUAUUACGUGAA	-1.75 ± 0.11	-1.47 ± 0.16
GUUAAGCAAUAUUACGUGGU	-2.79 ± 0.15	-2.35 ± 0.19
GUUAAGCAAUAUUACGUGUG	-1.93 ± 0.093	-1.21 ± 0.098

Sequence	self-splicing fitness (ln) (30 °C)	self-splicing fitness (ln) (37 °C)
GUUAAGCAAUAUUACGUUAU	-1.62 ± 0.12	-0.968 ± 0.13
GUUAAGCAAUAUUACGUUCC	-2.16 ± 0.18	-0.875 ± 0.23
GUUCAGCAAUAUUACGAAUU	-1.52 ± 0.14	-1.14 ± 0.14
GUUCAGCAAUAUUACGAUAG	-2.65 ± 0.2	-1.53 ± 0.18
GUUCAGCAAUAUUACGAUGA	-1.07 ± 0.13	-0.686 ± 0.19
GUUCAGCAAUAUUACGAUUC	0.118 ± 0.095	0.523 ± 0.11
GUUCAGCAAUAUUACGCAAC	-2.96 ± 0.22	-1.48 ± 0.21
GUUCAGCAAUAUUACGCAUA	-0.815 ± 0.083	0.0985 ± 0.1
GUUCAGCAAUAUUACGCAUC	-0.592 ± 0.12	-0.361 ± 0.14
GUUCAGCAAUAUUACGCCAG	-2.06 ± 0.29	
GUUCAGCAAUAUUACGCCCC	-0.521 ± 0.16	-0.42 ± 0.19
GUUCAGCAAUAUUACGCGUG	-0.852 ± 0.083	0.166 ± 0.088
GUUCAGCAAUAUUACGCUAC	-3.75 ± 0.29	-2.67 ± 0.26
GUUCAGCAAUAUUACGCUGG	-4.05 ± 0.27	-1.53 ± 0.13
GUUCAGCAAUAUUACGCUGU	-3.2 ± 0.17	-1.65 ± 0.12
GUUCAGCAAUAUUACGGACU	-3.7 ± 0.14	-2.88 ± 0.18
GUUCAGCAAUAUUACGGAGA		-1.33 ± 0.29
GUUCAGCAAUAUUACGGCGC	-0.314 ± 0.094	0.633 ± 0.13
GUUCAGCAAUAUUACGGCUA	-0.564 ± 0.14	-0.232 ± 0.15
GUUCAGCAAUAUUACGGCUG	-3.59 ± 0.23	-2.38 ± 0.26
GUUCAGCAAUAUUACGGGGC	-2.68 ± 0.16	-2.78 ± 0.21
GUUCAGCAAUAUUACGUAAC	-0.462 ± 0.17	-0.994 ± 0.26
GUUCAGCAAUAUUACGUAUG	-2.03 ± 0.1	-0.968 ± 0.099
GUUCAGCAAUAUUACGUCUA	-1.14 ± 0.14	-0.132 ± 0.13
